Where two headings read alike, the source gives them in different places.
T1: Efb-N30-105 (Staphylococcus aureus strain Newman, UniProt A6QG59 30-105)
T1 sequence: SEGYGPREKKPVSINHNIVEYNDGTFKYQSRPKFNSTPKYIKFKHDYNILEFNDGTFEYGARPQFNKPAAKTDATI

T2: Coa-R0474-505 (recombinant protein) (Staphylococcus aureus strain Newman)
T2 chain: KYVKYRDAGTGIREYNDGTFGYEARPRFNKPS


Experiments:
[1] = target: T3, recombinant Efb-O (Efb 68-98) (Staphylococcus aureus strain Newman, UniProt P08515 1-218 = GST)
Efb-N30-105 [2] = target: T1, Efb-N30-105
[3] = target: T3, recombinant Efb-O (Efb 68-98); assay: apparent Kd from half-maximal binding in ELISA (GraphPad Prism)
Efb-N30-105 [4] = target: T1, Efb-N30-105; assay: as above
Efb-A30-67 [5] = target: T4, Efb-A30-67 (Staphylococcus aureus strain Newman, UniProt P08515 1-218 = GST; A6QG59 30-67); assay: as above
Coa-R (Coa 506-636) [6] = target: T5, Coa-R (Coa 506-636) (Staphylococcus aureus strain Newman); assay: ELISA, antigen coated 200 ng/well, scFv-Fc at 0.5 µg/ml
Coa-C (Coa 311-636) [7] = target: T6, Coa-C (Coa 311-636) (Staphylococcus aureus strain Newman, UniProt P08515 1-218 = GST); assay: apparent Kd from half-maximal binding in ELISA (GraphPad Prism)
T6 construct: also called rCoa-C; Coa-C311-636

[8] = target: T2, Coa-R0474-505 (recombinant protein); assay: as above
Coa-F (Coa 311-505) [9] = target: T7, Coa-F (Coa 311-505) (Staphylococcus aureus strain Newman, UniProt P08515 1-218 = GST); assay: as above
Coa-C (Coa 311-636) [10] = target: T6, Coa-C (Coa 311-636)
[11] = target: T2, Coa-R0474-505 (recombinant protein)
Coa-F (Coa 311-505) [12] = target: T7, Coa-F (Coa 311-505)
Efb-A30-67 [13] = target: T4, Efb-A30-67
[14] = target: T3, recombinant Efb-O (Efb 68-98); assay: solid-phase binding assay, titration (FIG. 24)
Efb-N30-105 [15] = target: T1, Efb-N30-105; assay: solid-phase binding assay, titration (FIG. 24)
Efb-A30-67 [16] = target: T4, Efb-A30-67; assay: solid-phase binding assay, titration (FIG. 24)
Coa-C (Coa 311-636) [17] = target: T6, Coa-C (Coa 311-636); assay: apparent Kd from half-maximal binding in ELISA (GraphPad Prism); column head prints M, the text prints µM
BSA = target: T8, BSA (bovine, UniProt P02769 25-607); assay: solid-phase binding assay (FIG. 24)
T8 construct: also called bovine serum albumin

[18] = target: T2, Coa-R0474-505 (recombinant protein); assay: apparent Kd from half-maximal binding in ELISA (GraphPad Prism)
Description: (§1) As well, binding was tested against Coa fragments, namely Coa-C₃₁₁₋₆₃₆, Coa-F₃₁₁₋₅₀₅, Coa-R0₄₇₄₋₅₀₅ and Coa-R₅₀₆₋₆₃₆. Recombinant proteins Efb-N₃₀₋₁₀₅, Efb-A₃₀₋₆₇, Efb-O₆₈₋₉₈, Coa-C₃₁₁₋₆₃₆, Coa-F₃₁₁₋₅₀₅, Coa-R0₄₇₄₋₅₀₅ and Coa-R₅₀₆₋₆₃₆ were diluted in 50 mM sodium carbonate pH 9.6 and immobilized at the concentration of 200 ng/well for 1 hour at room temperature. Immobilized proteins were probed for recognition in a solid-phase binding assay with different quantities of LIG40 antibodies after blocking and washing. After washing, varying concentrations of LIG40 scFv-Fc antibodies were diluted in 2% BSA+1×PBS+0.05% Tween-20 and incubated with the immobilized proteins for 1 hour at room temperature with shaking at 250 rpm. Bound scFv-Fcs were detected using polyclonal α-human IgG HRP-conjugated Ab diluted to 1:10000 in 2% BSA+1×PBS+0.05% Tween-20. HRP-conjugated Ab was incubated for 1 hour at room temperature with shaking at 250 rpm. HRP signal was developed with Sigma FAST-OPD using manufacturers guidelines.

Coa-F (Coa 311-505) [19] = target: T7, Coa-F (Coa 311-505); assay: as above; remark: listed apart in the source
Description: as §1

Coa-R (Coa 506-636) [20] = target: T5, Coa-R (Coa 506-636); assay: as above
Description: as §1

Coa-C (Coa 311-636) [21] = target: T6, Coa-C (Coa 311-636); remark: listed apart in the source
Coa-F (Coa 311-505) [22] = target: T7, Coa-F (Coa 311-505); remark: listed apart in the source
Coa-R (Coa 506-636) [23] = target: T5, Coa-R (Coa 506-636)

T8 sequence (P02769 25-607 limits assumed): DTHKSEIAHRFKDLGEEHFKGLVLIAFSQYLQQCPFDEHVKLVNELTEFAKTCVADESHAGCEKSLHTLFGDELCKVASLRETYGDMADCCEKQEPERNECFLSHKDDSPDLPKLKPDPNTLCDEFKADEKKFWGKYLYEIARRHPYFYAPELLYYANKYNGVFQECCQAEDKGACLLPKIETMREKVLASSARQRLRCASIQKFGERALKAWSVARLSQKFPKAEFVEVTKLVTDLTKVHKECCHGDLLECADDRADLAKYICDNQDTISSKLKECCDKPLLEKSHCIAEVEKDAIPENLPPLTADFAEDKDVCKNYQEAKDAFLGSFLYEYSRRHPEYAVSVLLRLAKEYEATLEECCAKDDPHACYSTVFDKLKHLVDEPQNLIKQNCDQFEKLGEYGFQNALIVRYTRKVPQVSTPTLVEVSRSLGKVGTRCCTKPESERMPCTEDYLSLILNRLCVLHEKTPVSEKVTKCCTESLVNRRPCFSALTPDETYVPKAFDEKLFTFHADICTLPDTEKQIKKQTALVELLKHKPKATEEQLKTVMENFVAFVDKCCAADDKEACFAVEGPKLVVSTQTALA

Row | Binder | Kd [3] [nM] | Kd (Efb-N30-105 [4]) [nM] | Kd (Efb-A30-67 [5]) [nM] | binding result (Coa-R (Coa 506-636) [6]) | Kd (Coa-C (Coa 311-636) [7]) [nM] | Kd [8] [nM] | Kd (Coa-F (Coa 311-505) [9]) [nM] | EC50 (read off the curve) (Coa-C (Coa 311-636) [10]) [µg/mL] | EC50 (read off the curve) [11] [µg/mL] | also measured
1 | FBE5-D9 (scFv, V domains shown) VH: QVQLVESGGGVVQPGRSLRLSCAASGFTFSSYGMHWVRQAPGKGLEWVAVISYDGSNKYYADSVKGRFTISRDNSKNTLYLQMNSLRAEDTAVYYCAKNQEWLVPGYWGQGTLVTVSS VL: QSALTQPASVSGSPGQSITISCTGTSSDVGGYNYVSWYQQHPGKAPKLMIYDVSNRPSGVSNRFSGSKSGNTASLTISGLQAEDEADYYCSSYTSSSTLVFGGGTKLTVL | 2.68 | 1.31 | 4.48 | no binding (tested: 0.5 µg/ml) | 0.779 | 1.14 | 0.536 | ~0.08 | ~0.1 | EC50 (read off the curve) [1]: ~0.3 µg/mL; EC50 (read off the curve) (Efb-N30-105 [2]): ~0.1 µg/mL; EC50 (read off the curve) (Coa-F (Coa 311-505) [12]): ~0.06 µg/mL
2 | FBE5-A12 (scFv, V domains shown) VH: QVQLVESGGGVVQPGRSLRLSCAASGFTFSSYGMHWVRQAPGKGLEWVAVISYDGSNKYYADSVKGRFTISRDNSKNTLYLQMNSLRGEDTAVYYCAREGGWEPNGLDYWGQGTLVTVSS VL: QAVLTQPPSASGTPGQRVTISCSGSDFNVGTNYVNWYQQLPGSAPKLLIYRNNQRPSGVPDRFSGSKSGTSATLGITGLQTGDEADYYCGTWDSSLSAEVFGGGTKLTVL |  |  |  | no binding (tested: 0.5 µg/ml) | 0.555 | 2.44 | 0.647 | ~0.06 |  | 
3 | FBE5-D10 (scFv, V domains shown) VH: QVQLVQSGGGVVQPGRSLRLSCAASGFTFSNYGMHWVRQAPGKGLEWVAVISYDGSNKYYADSVKGRFTISRDNSKNTLYLQMNSLRAEDTAVYYCAKDSREQWLAHWGQGTLVTVSS VL: not shown | 3.65 | 1.97 | 1.57 | no binding (tested: 0.5 µg/ml) | 1.4 | 0.856 | 0.95 | ~0.1 | ~0.08 | EC50 (read off the curve) [1]: ~0.3 µg/mL; EC50 (read off the curve) (Efb-N30-105 [2]): ~0.2 µg/mL; EC50 (read off the curve) (Efb-A30-67 [13]): ~0.1 µg/mL; EC50 (read off the curve) (Coa-F (Coa 311-505) [12]): ~0.09 µg/mL
4 | LIG40-D8 (scFv, V domains shown) VH: EVQLVESGGGVVQPGRSLRLSCAASGFTFSSYGMHWVRQAPGKGLEWVAVIWYDGSNKYYADSVKGRFTISRDNSKNTLYLQMNSLRAEDTAVYYCARDYHGDGFDYWGQGTLVTVSS VL: DIQMTQSPSSLSASVGDTVTITCRASQDINNYLAWFQQKPGKAPKSLISAASSLQNGVPLRFSGSASGADFTLTISGLQPEDSGTYYCQQYDVFPITFGPGTKVDIK |  |  |  |  |  |  |  |  |  | binding result [14]: no binding; binding result (Efb-N30-105 [15]): no binding; binding result (Efb-A30-67 [16]): no binding; Kd (Coa-C (Coa 311-636) [17]): 0.0939 nM; binding result (BSA): no binding; Kd [18]: 2.52 nM; Kd (Coa-F (Coa 311-505) [19]): 0.112 nM; Kd (Coa-R (Coa 506-636) [20]): 0.0862 nM; EC50 (read off the curve) (Coa-C (Coa 311-636) [21]): ~0.01 µg/mL; EC50 (read off the curve) (Coa-F (Coa 311-505) [22]): ~0.01 µg/mL; EC50 (read off the curve) (Coa-R (Coa 506-636) [23]): ~0.01 µg/mL
5 | FBE5-C1 (scFv, V domains shown) VH: EVQLVETRGGVVQPGRSLRLSCAASGFTFSSYGMHWVRQAPGKGLEWVAVISYDGSNKYYADSVKGRFTISRDNSKNTLYLQMNSLRAEDTAVYYCAREGTYYYDSSGYYEGGFDYWGQGTLVTVSS VL: QSVLTQPPSASGTPGQRVTISCSGSSSNIGSGPVNWYQQLPGTAPKLLIYSDTRRPSGIPDRLSGSKSGTSASLGISGLQSEDEADYYCAAWDDSLNGYAFGSGTKVTVL |  |  | 40.9 | no binding (tested: 0.5 µg/ml) | 1.13 | 24.3 | 4.59 |  |  | 
6 | FBE5-B9 (scFv, V domains shown) VH: EVQLVESRGGVVQPGRSLRLSCAASGFTFSSYGMHWVRQAPGRGLEWVAVISYDGSNKYYADSVKGRFTISRDNSKNTLYLQMNGLRSDDTAVYYCARGGDDYGDYFDYWGQGTLVTVSS VL: QSVLTQPPSVSAAPGQKVTISCSGSSSNIGNNYVSWYQQLPGTAPKLLIYDNNKRPSGIPDRFSGSKSGTSATLGITGLQTGDEADYYCGTWDSSLSAAVFGGGTKLTVL | 8.27 | 3.45 | 25.9 | no binding (tested: 0.5 µg/ml) | 1.74 | 2.19 | 1.12 |  | ~0.2 | 
7 | FBE5-F9 (scFv, V domains shown) VH: QMQLVQSGGGVVQPGRSLRLSCAASGFTFSSYGMHWVRQAPGKGLEWVAVISYDGSNKYYADSVKGRFTISRDNSKNTLYLQMNSLRAEDTAVYYCAKEGDGDYGGVLDYWGQGTLVTVSS VL: QSVLTQPPSVSAAPGQKVTISCSGSSSNIEKNYVSWYQQLPGTAPKLLIYDNNKRPSGIPDRFSGSKSGTSATLGITGLQTGDEADYYCGTWDSSLSAVVFGGGTKLTVL | 7.97 | 6.01 | 21.5 | no binding (tested: 0.5 µg/ml) | 2.85 | 3.16 | 1.63 |  |  | 
8 | FBE5-C8 (scFv, V domains shown) VH: QMQLVQSGGGVVQPGRSLRLSCAASGFIFSNYGMHWVRQAPGKGLEWVAVISYDGSNKYYADSVKGRFTISRDNSKNTLYLQMDSLRAEDTAVYYCAREGVGGDYGDLPTGPYYYYGMDVWGQGTTVTVSS VL: QSVLTQPPSVSAAPGQKVTISCSGSSSNIGNNSVSWYQQLPGTAPKLLIYDNNKRPSGIPDRFSGSKSGTSATLGITGLQTGDEADYYCETWDSSLSAVVFGGGTKLTVL |  |  |  | no binding (tested: 0.5 µg/ml) | 13.5 |  | 7 |  |  | 
9 | FBE5-A5 (scFv, V domains shown) VH: EVQLVQSGGGVVQPGRSLRLSCAASGFTFSSYGMHWVRQAPGKGLEWVAVISYDGSNKYYADSVKGRFTISRDNSKNTLYLQMNSLRAEDTAVYYCAKAGPDSYGYGMDVWGQGTTVTVSS VL: not shown | 4.27 | 3.24 | 4.38 | no binding (tested: 0.5 µg/ml) | 5.34 | 1.86 | 1.47 |  | ~0.2 | EC50 (read off the curve) (Efb-A30-67 [13]): ~0.4 µg/mL
10 | FBE5-A6 (scFv, V domains shown) VH: QVQLVQSGGGVVQPGRSLRLSCAASGFTFSSYGMHWVRQAPGKGLEWVAVISYDGSNKYYADSVKGRFTISRDNSKNTLYLQMNSLRAEDTAVYYCAKAGDDDYGHYFDYWGQGTLVTVSS VL: not shown | 13 | 3.54 | 8.54 | no binding (tested: 0.5 µg/ml) | 1.24 | 1.9 | 1.15 |  | ~0.2 | 

— patent US20200283508A1 (TEXAS A AND M UNIVERSITY SYSTEM, published 2020)
